These results are taken from EP4792821A2 (Beijing Youcare Kechuang Pharmaceutical Technology Co., Ltd., dated 2026).

Experiment in all cases: cell-based or functional assay
In experiment [1] the target is F protein of RSV A long virus strain (Respiratory Syncytial Virus (RSV) A …, UniProt P12568 26-574).
For experiment [2], the target named is F protein of hMPV virus strain A2 (human metapneumovirus (hMPV) A2).
For experiment [3], the target named is F protein of hMPV virus strain B1 (human metapneumovirus (hMPV) B1).
Experiment [4] concerns the target F protein of hPIV Type 3 (hPIV3 C243) (human Parainfluenza Virus type 3 (hPIV3 …)).

*1 amine or outer side, *2 acyl side, *3 side chain or, on linkers, in order; H or OH if unused. Side-chain parts run from the residue outwards. The star is where a group is joined. Succinyl(4-O-cholesteryl) = CC(C)CCC[C@@H](C)[C@H]1CC[C@H]2[C@@H]3CC=C4C[C@@H](OC(=O)CCC(=O)*)CC[C@]4(C)[C@H]3CC[C@]12C; Suc = O=C(CCC(=O)[*:2])[*:1]

Sequence of F protein of RSV A long virus strain (P12568 26-574): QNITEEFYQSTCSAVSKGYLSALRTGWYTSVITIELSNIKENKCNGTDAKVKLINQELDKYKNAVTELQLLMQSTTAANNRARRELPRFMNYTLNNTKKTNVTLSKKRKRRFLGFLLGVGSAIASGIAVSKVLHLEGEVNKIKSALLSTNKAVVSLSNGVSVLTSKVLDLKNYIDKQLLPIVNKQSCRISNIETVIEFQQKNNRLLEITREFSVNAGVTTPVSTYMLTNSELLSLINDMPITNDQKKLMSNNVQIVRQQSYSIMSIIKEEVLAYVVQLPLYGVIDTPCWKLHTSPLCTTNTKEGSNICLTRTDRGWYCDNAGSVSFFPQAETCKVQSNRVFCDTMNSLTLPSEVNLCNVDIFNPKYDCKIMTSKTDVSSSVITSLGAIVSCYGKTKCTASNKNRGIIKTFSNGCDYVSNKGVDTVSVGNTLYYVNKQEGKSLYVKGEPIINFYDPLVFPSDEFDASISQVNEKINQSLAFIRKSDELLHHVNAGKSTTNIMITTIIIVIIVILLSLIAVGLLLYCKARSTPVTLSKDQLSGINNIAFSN

B1: Compound 43 (peptide)
peptide: Ac-WDEFDASIEEVNRRIEESLRRIEESDRRLEEVEAAAKK([Suc-Succinyl(4-O-cholesteryl)])-NH2
B1: the “IC50/nM, plaque reduction, RSV A long on HEp-2 cells (Table 2, Cell fusion inhibition activity)” value in experiment [1] turned out to be 18.3 nM. Also, the “EC50 (nM), plaque reduction, hMPV A2 on Vero cells” value in experiment [2] was 16.8 nM. Further, in experiment [3], the “EC50 (nM), plaque reduction, hMPV B1 on Vero cells” value was 8.01 nM. The “EC50 (nM), plaque reduction, hPIV3 C243 on LLC-MK2 cells” value in experiment [4] amounted to 16.1 nM.

B2: Compound 42 (peptide)
peptide: Ac-FDASIEEVNRRIEESLRRIEESDRRLEEVNAEAAAKK([Suc-Succinyl(4-O-cholesteryl)])-NH2
As for B2, the “IC50/nM, plaque reduction, RSV A long on HEp-2 cells (Table 2, Cell fusion inhibition activity)” value in experiment [1] amounted to 11.8 nM. Moreover, in experiment [2], the “EC50 (nM), plaque reduction, hMPV A2 on Vero cells” value was found to be 26.1 nM. In addition, in experiment [3], the “EC50 (nM), plaque reduction, hMPV B1 on Vero cells” value is 10.1 nM. In addition, the “EC50 (nM), plaque reduction, hPIV3 C243 on LLC-MK2 cells” value in experiment [4] amounted to 18.9 nM.
